From paper PMC3674885 come the findings set out here.

Usually IC50 stands for the concentration that gives 50% inhibition.

In data set [1] the target is TrkA receptor (rat) on MG139 cells (rat) (UniProt P35739). Kind of data set: radioligand binding.
The target is the same in data set [2]. The data set is described as follows: radioligand binding. This is another data set of the same source.
Data set [3] concerns the target both classes of receptors (TrkA and p75) on PC12 cells (rat (endogenous in PC12)). The data set is described as follows: radioligand binding.
In data set [4] the target is TrkA receptor (rat) on MG139 cells (rat) (UniProt P35739).
Data set [5] addresses both classes of receptors (TrkA and p75) on PC12 cells (rat (endogenous in PC12)). Kind of data set: radioligand binding. The source holds these as a separate data set.
Data set [6] deals with high-affinity site on PC12 cells (cold-temperature, cold-chase stable binding) (rat (endogenous in PC12)). The data set is described as follows: radioligand binding.
In data set [7] the target is 7-84-103 NGF mutein (F7A/H84A/R103A). Kind of data set: native gel or EMSA + other: high-performance ion-exchange chromatography. Conditions: native gel or EMSA + other: high-performance ion-exchange chromatography (HPIEC). (Mobility shift assays separate free from complexed probe on a gel.)

Where two headings read alike, the source gives them in different places.

Chain of UniProt P35739 (P35739 33-799): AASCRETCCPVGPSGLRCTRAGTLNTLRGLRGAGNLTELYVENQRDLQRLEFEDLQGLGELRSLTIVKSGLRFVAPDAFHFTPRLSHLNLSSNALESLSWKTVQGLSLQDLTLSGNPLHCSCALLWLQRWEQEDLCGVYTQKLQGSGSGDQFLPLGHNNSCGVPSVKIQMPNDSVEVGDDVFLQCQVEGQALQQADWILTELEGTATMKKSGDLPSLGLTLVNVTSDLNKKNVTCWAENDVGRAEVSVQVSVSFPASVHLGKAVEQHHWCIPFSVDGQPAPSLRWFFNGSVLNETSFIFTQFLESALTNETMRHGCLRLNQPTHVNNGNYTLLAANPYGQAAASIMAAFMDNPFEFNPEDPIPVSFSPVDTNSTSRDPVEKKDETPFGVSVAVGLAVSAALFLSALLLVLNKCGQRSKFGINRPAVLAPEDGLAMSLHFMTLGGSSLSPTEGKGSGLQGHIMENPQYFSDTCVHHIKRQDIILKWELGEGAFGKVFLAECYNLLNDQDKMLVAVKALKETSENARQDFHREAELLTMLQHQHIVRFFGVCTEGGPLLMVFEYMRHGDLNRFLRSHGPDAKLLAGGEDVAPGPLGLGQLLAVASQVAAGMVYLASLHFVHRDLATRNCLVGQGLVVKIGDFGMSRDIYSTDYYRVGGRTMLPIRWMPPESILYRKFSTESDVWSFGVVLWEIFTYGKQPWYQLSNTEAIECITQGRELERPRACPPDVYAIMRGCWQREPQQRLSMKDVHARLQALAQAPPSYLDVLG

Consider “7-84-103 NGF mutein (F7A/H84A/R103A) (ligand)”, for which the IC50 in data set [1] was 15 nM; in data set [2], 11.5 nM; in data set [3], 2.45 nM; in data set [5] it was 1.9 nM. In data set [4], this molecule showed an XTT assay of survival of MG139 cells (TrkA+/p75-), 72 hr, EC50 of 17 nM. The molecule also yielded a trypan blue survival assay of PC12 cells (TrkA+/p75+), 72 hr, EC50 in data set [4] of 1.26 nM.

On to “Heteromutein 1 (heterodimer of the Δ9/13 and 7-84-103 NGF muteins) (from UniProt P01139 122-241) (complex)”, for which the IC50 in data set [1] worked out at 0.64 nM; in data set [2] it was 0.67 nM; in data set [3] it was 0.59 nM; in data set [5], 0.53 nM. Besides, in data set [4], the XTT assay of survival of MG139 cells (TrkA+/p75-), 72 hr, EC50 was 19 nM. In data set [4], this molecule yielded a neurite outgrowth of PC12 cells, 48 hr, EC50 of 1.8 nM. Besides, the trypan blue survival assay of PC12 cells (TrkA+/p75+), 72 hr, EC50 in data set [4] turned out to be 0.47 nM.

With “wild-type nerve growth factor (unlabelled) (from UniProt P01139 122-241) (ligand)”, the IC50 in data set [2] is 0.03 nM; in data set [3] it was 0.25 nM. For the same molecule, the trypan blue survival assay of PC12 cells (TrkA+/p75+), 72 hr, EC50 in data set [4] was found to be 0.28 nM.

In the case of “Δ9/13 NGF mutein (from UniProt P01139 122-241) (ligand)”, the percent of the cold-chase stable ^125I-NGF binding competed away in data set [6] amounted to 27%. In data set [3], this molecule returned an IC50 of 0.46 nM and a percent of ^125I-NGF binding left at the plateau of the competition curve of 20%. In data set [5], the IC50 amounted to 0.51 nM.

B1: Δ9/13 NGF mutein (protein)
chain: SSTHPVFHMGEFSVCDSVSVWVGDKTTATDIKGKEVTVLAEVNINNSVFRQYFFETKCRASNPVESGCRGIDSKHWNSYCTTTHTFVKALTTDEKQAAWRFIRIDTACVCVLSRKATRRG
Turning to B1, in data set [7], the “percent of the protein as heterodimer Htm1 in the 1:1 mixture (Mix1a)” value was 40% in Mix1a and the “percent of the protein as heterodimer Htm1 in the 1:2 mixture (Mix1)” value amounted to 37.5% in Mix1.
